Values quoted from earlier work as cited in patent US20070141059A1, “Use of cathepsin s inhibitors for treating an immune response caused by administration of a small molecule therapeutic or biologic” (AXYS Pharmaceuticals, Inc., priority 2003, published 2007).
One block for each molecule: values may come before it.

Tests used:
[1] = patients taking heparin

Molecule: OKT3: murine monoclonal antibody directed towards CD-3 domain of activated T-cells
patients producing antibodies versus the therapy (in clinical trials): 20-40%

Molecule: Remicade®: biologic; biological agent that induces the production of specific immunoglobulins
patients generating neutralizing antibodies (patients taking the biologic): 10%

patients experiencing heparin induced thrombocytopenia (HIT) [1]: ~3%
Molecule: heparin

B1: Betaseron®: biologic; biological agent that induces the production of specific immunoglobulins (protein, UniProt P01574 22-187, looked up, variant C17S)
Interferon beta: MSYNLLGFLQRSSNFQSQKLLWQLNGRLEYCLKDRMNFDIPEEIKQLQQFQKEDAALTIYEMLQNIFAIFRQDSSSTGWNETIVENLLANVYHQINHLKTVLEEKLEKEDFTRGKLMSSLHLKRYYGRILHYLKAKEYSHCAWTIVRVEILRNFYFINRLTGYLRN
modifications: non-glycosylated, E. coli-expressed
notes: biologic; biological agent that induces the production of specific immunoglobulins
patients found to have serum-neutralizing activity (patients taking the biologic): 45%
